Source: patent publication US20200392528A1, “IMPROVED PLANT EPSP SYNTHASES AND METHODS OF USE” (PIONEER HI-BRED INTERNATIONAL, INC., priority 2017, published 2020)
Where a chain is given by its changes, count along the chain named.

B1: Zm D2-3P124: maize EPSPS variant, SEQ ID NO: 3; D2-124 has 18 mutations (protein)
chain: MRKWEEIVLQPIKEISGTVKLPGSKSLSNRILLLAALSEGTTVVDNLLNSEDVGYMLGALRTLGLSVEHDEAAKRAVVVGCGGRFPVEDAKGEVQLFCGNAATAMRPLTAAVTAAGGNATYVLDGVPRMRERPIGDLVVGLKQLGADVDCFLGTDCPPVRVNGIGGLPGGKVKLSGSISSQYLSALLMAAPLALGDVEIEIIDKLISLPYVEMTLRLMERFGVRAEHSDSWDRFYIKGGQKYESPKNAYVEGDASSASYFLAGAAITGGTVTVEGCGTTSLQGDVKFAEVLEMMGAKVTWTETSVTVTGPPREPFGRKHLKAIDVNMNKMPDAAMTLAVVALFADGPTAIRDVGSWRVKETERMVAIRTELTKLGASVEEGPDYCIITPPPKLNVTAIDTYGDHRMAMAFSLAACGEVPVTIRDPGCTRKTFPDYFDVLSTFVKN
modifications: Zea mays
notes: D2-124 has 18 mutations
B2: Zm D2c-A5: maize EPSPS variant with 21 mutations, SEQ ID NO: 59 (protein)
chain: B1 chain with R2S, N162R, M293L, E302P
modifications: Zea mays
B3: Zm F3: maize EPSPS variant, SEQ ID NO: 11 (protein)
chain: MAGAEEIVLQPIKEISGTVKLPGSKSLSNRILLLAALSEGTTVVDNLLNSEDVHYMLGALRTLGLSVEADKAAKRAVVVGCGGKFPVEDAKEEVQLFCGNAATAMRPLTAAVTAAGGNATYVLDGVPRMRERPIGDLVVGLKQLGADVDCFLGTDCPPVRVNGIGGLPGGKVKLSGSISSQYLSALLMAAPLALGDVEIEIIDKLISIPYVEMTLRLMERFGVKAEHSDSWDRFYIKGGQKYKSPKNAYVEGDASSASYFLAGAAITGGTVTVEGCGTTSLQGDVKFAEVLEMMGAKVTWTETSVTVTGPPREPFGRKHLKAIDVNMNKMPDVAMTLAVVALFADGPTAIRDVASWRVKESERMVAIRTELTKLGASVEEGPDYCIITPPEKLNVTAIDTYGDHRMAMAFSLAACAEVPVTIRDPGCTRKTFPDYFDVLSTFVKN
modifications: Zea mays
B4: Zm F3-88: maize EPSPS variant, SEQ ID NO: 12 (protein)
chain: B3 chain with H54G, R216V, E226Y, K297A, V333A, R429A
modifications: Zea mays
B5: Zm D2-28: maize EPSPS variant, SEQ ID NO: 8 (protein)
chain: MRKWEEIVLQPIKEISGTVKLPGSKSLSNRILLLAGLAEGTTVVDNLLNSEDVHYMLGALRTLGLSVEHDKAAKRAVVVGCGGRFPVEDAKGEVQLFCGNAATAMRPLTAAVTAAGGNATYVLDGVPRMRERPIGDLVVGLKQLGADVDCFLGTDCPPVRVNGIGGLPGGKVKLSGSISSQYLSALLMAAPLALGDVEIEIIDKLISLPYVEMTLRLMERFGVKAERSDSWDRFYIKGGQSYLSPKNAYVEGDASSASYFLAGAAITGGTVTVEGCGTTSLQGDVKFAEVLEMMGAKVTWTEASVTVTGPPREPFGRKHLKAIDVNMNKMPDAAMTLAVVALFADGPTAIRDVGSWRVKETERMVAIRTELTKLGASVEEGPDYCIITPPEKLNVTAIDTYGDHRMAMAFSLAACAEVPVTIRDPGCTRKTFPDYFDVLSTFVKN
modifications: Zea mays
B6: Zm D2-82: maize EPSPS variant, SEQ ID NO: 6 (protein)
chain: B1 chain with G54H, E71K, R224K, R368C, G416A
modifications: Zea mays
B7: Zm D2-68: maize EPSPS variant, SEQ ID NO: 4 (protein)
chain: B1 chain with S38A, G54L, E71K, R224K, E243L, G354A, R368C, G416A
modifications: Zea mays
B8: Zm D2-67: maize EPSPS variant, SEQ ID NO: 5 (protein)
chain: B1 chain with G54H, E71K, R224K, G416A
modifications: Zea mays

Each molecule was assayed against maize EPSPS (assay: substrate saturation kinetic analysis (kcat, KM PEP, KI glyphosate)). Settings: Ki for glyphosate.
Format: biochemical
Description: (§1) EPSPS activity was determined by quantifying the phosphate generated from the EPSPS reaction. Release of inorganic phosphate was coupled to its reaction with 2-amino-6-mercapto-7-methylpurine ribonucleoside (MESG), catalyzed by purine nucleoside phosphorylase, according to previously described protocols. To determine the kcat gly, enzyme preparations were normalized to 0.1 mg/ml and four- to six-microliter aliquots of normalized enzyme were added to the wells of a low UV-absorbing 96-well assay plate (Greiner UV-Star). Reactions were started with the addition of 2×147 μl of reaction mixture containing 25 mM Hepes, pH 7.0, 100 mM KCl, 5% ethylene glycol, 30 μM each of PEP and S3P, 0.15 mM MESG, 1.5 U/ml purine nucleoside phosphorylase (Sigma N8264) and 1 mM glyphosate. Absorbance was monitored at 4 sec intervals for 50 sec with a Spectramax plate reader (Molecular Devices). […] Division by the enzyme concentration (0.04 to 0.1 uM, depending on activity) yields “kcat gly” in units of min^−1.
(§2) Approximately 30 substitutions were designed into each library. Assuming an average incorporation rate of six substitutions per variant, the theoretical size of such libraries is ˜7×10^5. Libraries were screened using methods described previously and the enhanced method described in Example 2. The number of colony-forming units plated and screened was in the range of 50 to 100% of the theoretical size. Up to 200 colonies per library were picked for evaluation of the expressed variant. Proteins were purified as described previously in PCT/US2016/054399, incorporated herein by reference. Protein concentration was determined by measuring optical density at 280 nm. The extinction coefficient of native maize EPSPS (0.676 OD/mg/ml) was calculated by vNTI and used to convert OD280 to mg/ml. Kinetic parameters were determined as described in Example 1.
Combinatorial shuffling, maize native EPSPS—The mutations discovered were used to construct a combinatorial library designed to explore combinations of the desensitizing mutations in novel sequence contexts provided by the newly identified neutral mutations. Note that the amino acid position numbering in this Example 10 refers to the relative position of native maize EPSPS without the N-terminal Met. Therefore, G101A in this Example would be G102A in reference to SEQ ID NO: 1, wherein the maize EPSPS sequence has a Met added at the N-terminal. The diversity used was the same with the addition of G101A, T102 (IALGV) and P106(WA). In all, 43 substitutions at 29 positions were selected. The library was synthesized entirely from oligonucleotides, using the known technique of synthetic shuffling and was termed NatFS (Native, fully synthetic). The vector DNA of the library was transformed into the BL21(DE3) Tuner-AroA knockout strain and the cells were plated onto M9 medium containing either 30 mM glyphosate and 30 μM of the lac operon inducer isopropyl β-D-1-thiogalactopyranoside (IPTG) or 50 mM glyphosate and no IPTG. The 184 colonies that grew on either plate were picked and subjected to a second tier of screening in which EPSPS proteins were purified and activity measured at high (200 μM) and low (50 μM) PEP and S3P, with or without 10 μM glyphosate. Selected variants were subjected to substrate saturation kinetic analysis.

Row | Molecule | Ki [mM]
1 | B1 | 0.893 ± 0.053
2 | B2 | 0.839 ± 0.04

Same assay, conditions: Table 2

Row | Molecule | kcat [s⁻¹] | kcat/KM*KI
3 | B1 | 9.88 | 22710
4 | B3 | 7.87 | 7280
5 | B4 | 11.6 | 29600
6 | B5 | 8.03 | 21500
7 | B6 | 10.4 | 30900
8 | B7 | 9.23 | 37400
9 | B8 | 9.47 | 27100

Same assay, conditions: Table 2; KM for PEP; read-out: KM

Row | Molecule | Km [µM]
10 | B1 | 34.7
11 | B3 | 71.5
12 | B4 | 55.6
13 | B5 | 15.8
14 | B6 | 26.3
15 | B7 | 22.1
16 | B8 | 20

Same assay, conditions: Table 2; discrimination between glyphosate and PEP

Row | Molecule | KI/KM
17 | B1 | 38.3
18 | B3 | 15.4
19 | B4 | 44.0
20 | B5 | 44.5
21 | B6 | 49.4
22 | B7 | 67.5
23 | B8 | 47.7

Same assay, conditions: Table 2; inhibitor glyphosate

Row | Molecule | Ki [mM]
24 | B1 | 1.33
25 | B3 | 1.1
26 | B4 | 2.44
27 | B5 | 0.703
28 | B6 | 1.3
29 | B7 | 1.49
30 | B8 | 0.955

Same assay, conditions: apparent Km; PEP present at 10 times its Km; read-out: Km S3P

Row | Molecule | Km [µM]
31 | B1 | 11.1 ± 0.7
32 | B2 | 12.6 ± 1.4

Same assay, conditions: apparent Km; S3P present at 10 times its Km; read-out: Km PEP

Row | Molecule | Km [µM]
33 | B1 | 18.1 ± 0.7
34 | B2 | 18.1 ± 0.6

Same assay, conditions: calculated with Km for PEP

Row | Molecule | kcat/Km*Ki
35 | B1 | 31130
36 | B2 | 34350

Same assay, conditions: maize EPSPS variants

Row | Molecule | kcat [s⁻¹]
37 | B1 | 10.5 ± 0.083
38 | B2 | 12.4 ± 0.1

These molecules were tested on maize EPSPS (assay: kcat gly / kgly: enzyme turnover under application conditions (30 μM PEP and S3P, 1 mM glyphosate), phosphate release coupled to MESG). Settings: D2c variants with substitutions relative to D2-124; no unit in table (kcat gly given in min^−1).
Format: biochemical
Description: A more straight-forward, accurate and meaningful parameter is one in which one rate measurement is performed under presumed in vivo conditions, if known. To establish a set of conditions that mimic those under which the mutated enzyme needs to perform, the concentrations of PEP and S3P were set low (30 uM, subject to the sensitivity of assay conditions) to approach the presumed intracellular concentrations (˜15 uM, the approximate values of KM for both PEP and S3P). Glyphosate is included at 1 mM. The pH is set at 7.0 and ionic strength at 100 mM KCl, also to mimic known in vivo conditions. Ethylene glycol is present at 5% (v/v) to approximate the dielectric constant of intracellular fluid. The parameter is termed “enzyme turnover under application conditions”, which is herein shortened to “kcat gly”. The conventional formatting of the expression “kcat” is not used, to avoid this term being characterized as a standard kinetic constant.
as §1, §2
A customized parameter for predicting performance in the treated plant that would be a more accurate representation than kcat/Km*Ki. […] However, kcat/Km*Ki may be inadequate for predicting the reaction velocity under the conditions of the application (plants sprayed with glyphosate) because it may neglect concentrations of substrate and inhibitor, factors that are not intrinsic to the enzyme, but on which the reaction rate depends. Therefore, libraries derived from C1 on in FIG. 2 were evaluated with a single rate measurement designed to take all factors in the rate equation for competitive inhibition into account. […] Glyphosate was included at 1 mM, a concentration attainable in tissues, especially meristems, receiving metabolite flow from treated leaves. The pH (7.0), ionic strength (100 mM KCl) and co-solvent concentration (5% ethylene glycol) were also intended to mimic in vivo conditions. The unit for the parameter is reaction rate (μM·min^−1) per enzyme concentration (μM), or min^−1, describing the enzyme turnover under application conditions, which we abbreviate as “kgly”. […]

Row | Molecule | kcat gly
39 | B2 | 156

Same assay, conditions: Table 2; 30 μM PEP and S3P, 1 mM glyphosate, pH 7.0

Row | Molecule | kcat gly [min⁻¹]
40 | B1 | 132
41 | B3 | 39.3
42 | B4 | 85.7
43 | B5 | 120
44 | B6 | 124
45 | B7 | 113
46 | B8 | 119

Same assay, conditions: Table 5; maize variants

Row | Molecule | kcat gly [min⁻¹]
47 | B3 | 45.2
48 | B4 | 98
49 | B8 | 138

Same assay, conditions: Table 5; ratio of kcat gly, maize variant to rice ortholog

Row | Molecule | Zm/Os
50 | B3 | 1.16
51 | B4 | 1.57
52 | B8 | 1.35

Same assay, conditions: enzyme turnover at 30 μM PEP and S3P, 1 mM glyphosate

Row | Molecule | kgly [min⁻¹]
53 | B1 | 175 ± 2.5
54 | B2 | 186 ± 4.7
